Laboratory results taken from PMC6412114.

Assays:
IDH1 [1] = target: T1, IDH1 (UniProt O75874 1-414); experiment: EMSA
IDH1 [2] = target: T1, IDH1; experiment: EMSA; remark: listed apart in the source

T1 sequence (O75874 whole entry): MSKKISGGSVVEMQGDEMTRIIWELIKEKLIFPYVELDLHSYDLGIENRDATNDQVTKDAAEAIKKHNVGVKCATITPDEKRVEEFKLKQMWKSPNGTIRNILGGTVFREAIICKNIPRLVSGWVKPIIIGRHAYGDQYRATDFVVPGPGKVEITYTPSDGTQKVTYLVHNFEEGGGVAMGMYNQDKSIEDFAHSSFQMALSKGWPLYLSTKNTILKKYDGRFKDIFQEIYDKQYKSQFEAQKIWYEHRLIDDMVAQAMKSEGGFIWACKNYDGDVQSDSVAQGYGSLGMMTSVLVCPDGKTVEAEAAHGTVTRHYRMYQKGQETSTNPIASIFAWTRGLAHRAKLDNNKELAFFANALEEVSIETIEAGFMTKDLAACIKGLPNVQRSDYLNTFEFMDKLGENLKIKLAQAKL

GGATCCATTTATTTATTTATTTAAGCTTGG (ssDNA) [AU-rich ssDNA]: no binding (IDH1 [1]).

B1: AU-rich dsRNA (dsRNA)
RNA 1: GGAUCCAUUUAUUUAUUUAUUUAAGCUUGG
RNA 2: CCUAGGUUAAAUAAAUAAAUAAAUCGAUCC
B1: no binding (IDH1 [1]).

In the case of GGAUCCAUUUAUUUAUUUAUUUAAGCUUGG (ssRNA) [AU-rich ssRNA], the Kd (IDH1 [2]) is reported as 680 ± 70 nM.

B2: AU-rich DNA/RNA hybrid (DNA:RNA)
RNA: GGAUCCAUUUAUUUAUUUAUUUAAGCUUGG
DNA: CCTAGGTTAAATAAATAAATAAATCGATCC
B2: no binding (IDH1 [1]).

B3: AU-rich dsDNA (dsDNA)
DNA 1: GGATCCATTTATTTATTTATTTAAGCTTGG
DNA 2: CCTAGGTTAAATAAATAAATAAATCGATCC
B3: no binding (IDH1 [1]).
